According to paper PMC8063735:

T1: citrate synthase (UniProt P00889)
T1 sequence: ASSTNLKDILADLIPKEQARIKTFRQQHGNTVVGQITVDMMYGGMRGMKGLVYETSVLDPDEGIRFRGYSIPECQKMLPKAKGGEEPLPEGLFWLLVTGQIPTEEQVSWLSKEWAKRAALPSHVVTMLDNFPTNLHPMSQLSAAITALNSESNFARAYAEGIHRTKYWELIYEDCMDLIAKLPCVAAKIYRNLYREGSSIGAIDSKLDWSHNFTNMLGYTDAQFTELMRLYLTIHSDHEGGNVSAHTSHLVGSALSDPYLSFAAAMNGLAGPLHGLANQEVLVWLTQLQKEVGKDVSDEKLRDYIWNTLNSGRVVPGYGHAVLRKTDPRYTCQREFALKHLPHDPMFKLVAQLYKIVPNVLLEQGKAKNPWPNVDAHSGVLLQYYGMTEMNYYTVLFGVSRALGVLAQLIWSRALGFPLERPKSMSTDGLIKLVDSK


What was measured:
[1] = target: T1, citrate synthase
[2] = target: T1, citrate synthase; remark: listed apart in the source

Row | differential centrifugation after the light scatter assay: per cent of CS in the pellet [1] [%] | suppression of aggregation of chemically denatured CS, light scattering at 320 nm, chaperone to substrate 1:1, 2:1 and 4:1 [2] [%] | Molecule
1 | 4 | – | Hsp110^ΔSBDβ (from UniProt Q9VUC1 1-804) (natural protein)
2 | – | 50 | Drosophila melanogaster Hsp110 (Hsc70cb-encoded protein) (natural protein) MSVIGIDFGNESCYVAAARSGGIETLANDYSLRATPSFVAFDGKKRIIGVAAKNQQVTNMKNTVGGFKRLLGRKFNDPHVQHELTSIPARVEARGDGSIGIKVNYLGEDQHFGPEQLTAMLFTKLKETSAAAMQTQVNDCVIACPVFFTNAERKALLDAAQIAGLNVLRLMNETTATALAYGFYKNDLFEDKPRNVIFVDFGHSSLQASACAFTKGKLKMLASTWDQIGGRDIDLALGDYFAKEFQERYKINAKTNARANLRLLTEIEKLKKQMSANSTKLPLNIECFLDDIDVSSSMQRSQMEELCAPVLQRVEQTFKRLLAESKLQLDDIHSVEIVGGSSRIPSVKQLIEQVFNKPASTTLNQDEAVSRGAALQCAIMSPAVRVREFGVTDIQNYAVKVLWDSEGSAAPGEIEIFPQYHASPFSRLLTINRKGPFNVSIVYGQQVPYPDQTIGVWKVKDVKPTERGEGQDVKLKVRINNNGIVLISSATLVEKKEAEEAAAAAEQAASEEKPGDQTNNTGEPADGQQEGADKKKKASKATELPLECTTHGFSPVDLSNYTQQESKMIGNDQKETERIDAKNALEEFVYDMRNKLQGGPFERYVVEAEREKIVSQLNDLENWLYEDGEDCERDIYTSRLQALHQKTDPIKLRASDYEQGPAAFDELKNSIAIARLAVAEFRKGVPKYDHLTETEFINISETADKAQSWLDANLPKFTQSPRTADSPVQISAVRQEVQTLNSCVSSVINRAKPKPTPAKTATPPKDEANAEQNGGEPAANSGDKMDVDNNGQSAAGNDPSMEVE
